Patent US5574018A, “Conjugates of vitamin B12 and proteins” (Amgen Inc., priority 1994, dated 1996)
Blank lines part the entries; values can stand above or below the molecule they belong to.

Key:
Porcine IF = target: T1, Porcine IF (Sus scrofa, UniProt A0A8D1ENZ1); assay: Intrinsic factor binding affinity, competition binding assay with 57Co-cyanocobalamin (Scatchard); conditions: for Kd: association constant, porcine IF, conjugate 123 nM, 30 min
T1 construct: purchased Sigma Chemical Company, St. Louis, Mo
Procedure: The binding affinity of conjugates of VB12 and therapeutic proteins to intrinsic factor (IF) was determined using a competition binding assay based on the procedure described by Mathan et al. in the Journal of Clinical Investigation, Volume 54, pages 598-608 (1974). The assay was conducted in phosphate buffered saline (PBS) containing 1 mM calcium chloride, 0.5 mM magnesium chloride and 1% by weight of bovine serum albumin (BSA) devoid of IF and cyanocobalamin (Sigma Chemical Company, St. Louis, Mo.). Porcine IF (final concentration 1.845 nM) was added to a large excess of the VB12 -protein conjugate (123 nM), together with a range of concentrations of ^57 Co-cyanocobalamin ([…] to 12.3 nM), specific activity 10-20 μCi/μg, in a final volume of 600 μl of PBS. The solution was vortexed and incubated at room temperature for thirty minutes, before adding 1 ml of freshly prepared dextran-coated charcoal (0.5% by weight of charcoal, 0.1% by weight of dextran in PBS) at 4° C. After incubation for ten minutes, the mixture was centrifuged for fifteen minutes at 1000×G (2500 rpm) and 4° C. in a IEC Centra-8R benchtop centrifuge, VWR Scientific, South Plainfield, N.J. The supernatant was decanted from the resulting pellet and assayed in a Cobra 2000 Gamma counter (Hewlett-Packard, Palo Alto, Calif.) to determine the amount of bound ^57 Co-cyanocobalamin.
The ratio of bound to free ^57 Co-cyanocobalamin versus the bound concentration of ^57 Co-cyanocobalamin was plotted according to the method of Scatchard, Annals of the New York Academy of Science, Volume 51, pages 660-672 (1949).
-Slope=-Kapp =-KL /(1+Kc [Lf ])
Kc =binding affinity of conjugate
KL =binding affinity of cyanocobalamin
[Lf ]=concentration of unbound conjugate
The use of a large excess of the conjugate permitted the value of [Lf ] to be treated as a constant (123 nM).

[1] = Stupperich and Nexo 1991; cited from earlier work
[2] = system: exhypoxic polycythemic mice; assay: In vivo exhypoxic polycythemic mouse assay of VB12-EPO conjugates; conditions: i.p., vs EPO
Procedure: The hematopoietic activity of EPO after conjugation to 5'-O-[glutaroyl]cyanocobalamin was determined in vivo in exhypoxic polycythemic mice using the procedure of Cotes and Bingham described in Nature, Volume 191, pages 1065-1067 (1961).
The dilution of the complexes prior to intraperitoneal (i.p.) injection was based on the protein content derived from the A280 of the sample.

[3] = Binding analysis of recombinant rat IF (rrIF)
mouse bone marrow cells = assay: In vitro thymidine uptake assay of VB12-G-CSF conjugates; assay type: cell-based; conditions: for Biological Activity of Conjugate, % activity compared to nonconjugated protein: vs G-CSF
Procedure: The bioactivity of VB12 -G-CSF in vitro after conjugation to 5'-O-[glutaroyl]cyanocobalamin was determined by measuring the stimulated in vitro uptake of ^3 H-thymidine into mouse bone marrow cells.
Bone marrow cells were collected from the hind legs of female Balb/C mice by flushing the bone with PBS. The cells were purified on a Ficoll-Paque density gradient (Pharmacia) and cultured in McCoys' 5A medium with 10% fetal bovine serum (FBS), 10 mM sodium pyruvate, 1×minimum essential medium (MEM) amino acids, 40 micromolar (μM) of essential amino acids, 0.04% by weight of sodium bicarbonate, 1×MEM vitamin solution, 10 mM L-glutamine and 0.005% by weight of gentamicin sulfate. After incubation for two hours at 37° C. under a 5% carbon dioxide-containing atmosphere, non-adherent cells were collected in the supernatant and the number of viable cells was counted in a hemocytometer.
A standard curve was prepared over a range from 0.07 to 1500 Units of G-CSF per milliliter (U/ml), and the complexes were diluted to about 0.3 to 30 U/ml prior to being assayed. To a 96-well plate was added, in triplicate, 100 μl of the standard or test material and 100 μl of culture medium containing 4×10^4 non-adherent mouse bone marrow cells. After incubating the plates for sixty eight hours at 37° C. under a 5% carbon dioxide atmosphere, 0.5 μCi of thymidine [methyl-3H], 20 Ci/mmol (NEN, Boston, Mass.) was added to each well. The plates were incubated as before for an additional five hours. The cells were collected on filter paper, rinsed with water (ten times) and ethanol (one time), and then counted in Biofluor scintillation fluid in a beta plate scintillation counter (LKB, Piscataway, N.J., Model 1205-001).
The bioactivity of the test material, in Units per milligram (U/mg), was determined from the standard curve of the G-CSF stimulated uptake of thymidine [methyl-^3 H].

T1 sequence (A0A8D1ENZ1 29-425): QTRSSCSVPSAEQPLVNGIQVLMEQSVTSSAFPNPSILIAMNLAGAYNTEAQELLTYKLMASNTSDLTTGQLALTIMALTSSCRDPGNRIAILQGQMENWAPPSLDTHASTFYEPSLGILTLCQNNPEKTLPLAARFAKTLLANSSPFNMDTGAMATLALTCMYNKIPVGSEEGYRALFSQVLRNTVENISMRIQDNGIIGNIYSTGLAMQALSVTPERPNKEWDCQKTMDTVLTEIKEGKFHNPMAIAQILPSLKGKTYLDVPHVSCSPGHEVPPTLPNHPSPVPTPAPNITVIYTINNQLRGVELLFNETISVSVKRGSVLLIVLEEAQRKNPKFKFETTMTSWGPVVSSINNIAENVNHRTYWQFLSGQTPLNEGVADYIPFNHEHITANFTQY

Molecule: 5'-O-[glutaroyl]-cyanocobalamin [Example 1]
Kd (Porcine IF): 1.35 nM

Molecule: native human IF: native human intrinsic factor, literature value
binding affinity (Ka) of native human IF [1]: 2e+10 M⁻¹

Molecule: Example 13: conjugate of 5'-O-[glutaroyl]cyanocobalamin-adipic-1,6-dihydrazide with periodate-treated EPO (through sialic acids)
Biological Activity of Conjugate, % activity compared to nonconjugated protein [2]: 33 ± 14%

B3: Example 7: conjugate of 5'-O-[glutaroyl]cyanocobalamin with G-CSF via 12-aminododecylamido-dithiopyridylpropionate (conjugate, UniProt P09919 31-207, looked up)
Granulocyte …: TPLGPASSLPQSFLLKCLEQVRKIQGDGAALQEKLVSECATYKLCHPEELVLLGHSLGIPWAPLSSCPSQALQLAGCLSQLHSGLFLYQGLLQALEGISPELGPTLDTLQLDVADFATTIWQQMEELGMAPALQPTQGAMPAFASAFQRRAGGVLVASHLQSFLEVSYRVLRHLAQP
modifications: cyanocobalamin conjugate via disulfide linker
notes: conjugate of 5'-O-[glutaroyl]cyanocobalamin with G-CSF via 12-aminododecylamido-dithiopyridylpropionate
Biological Activity of Conjugate, % activity compared to nonconjugated protein (mouse bone marrow cells): 33%
Kd (Porcine IF): 4 nM

The next lines start with results.

binding affinity (Ka) of rrIF [3]: 8.58e+09 M⁻¹
B1: rrIF: recombinant form of rat IF produced in Chinese hamster ovary cells (protein, UniProt P17267 19-417, looked up)
Cobalamin binding intrinsic …: STRAQRSCSVPPDQQPWVNGLQLLMENSVTESDLPNPSILIAMNLASTYNLEAQKLLTYQLMASDSADLTNGQLALTIMALTSSCRDPGSKVSILQKNMESWTPSNLGAESSSFYGPALAILALCQKNSEATLPIAVRFAKTLMMESSPFSVDTGAVATLALTCMYNRIPVGSQENYRDLFGQALKVIVDNISLRIKADGIIGDIYSTGLAMQALSVTPEQPTKEWDCEKTMYTILKEIKQGKFQNPMSIAQILPSLKGKTYLDVPQVTCGPDHEVPPTLTDYPTPVPTSISNITVIYTINNQLRGVDLLFNVTIEVSVKSGSVLLAVLEEAQRRNHMFKFETTMTSWGLIVSSINNIAENVKHKTYWEFLSGKTPLGEGVAYYIPFNYEHITANFTQY

Kd (Porcine IF): 2.22 nM
B2: Example 2: conjugate of 5'-O-[glutaroyl]cyanocobalamin with G-CSF via the N-hydroxysuccinimide derivative (conjugate, UniProt P09919 31-207, looked up)
Granulocyte …: B3 Granulocyte …
modifications: cyanocobalamin conjugate
notes: conjugate of 5'-O-[glutaroyl]cyanocobalamin with G-CSF via the N-hydroxysuccinimide derivative

Kd (Porcine IF): 1.89 nM
B4: Example 10: conjugate with G-CSF via N-hydroxysuccinimidyl ester of 5'-O-[glutaroyl]cyanocobalamin-8-aminocaprylic acid (conjugate, UniProt P09919 31-207, looked up)
Granulocyte …: B3 Granulocyte …
modifications: cyanocobalamin conjugate via aminocaprylic linker
notes: conjugate with G-CSF via N-hydroxysuccinimidyl ester of 5'-O-[glutaroyl]cyanocobalamin-8-aminocaprylic acid
Biological Activity of Conjugate, % activity compared to nonconjugated protein (mouse bone marrow cells): 60%

retention of non-conjugated VB12 binding affinity (Porcine IF): 1.6%
Kd (Porcine IF): 10.8 nM
B5: Example 8: conjugate of 5'-O-[glutaroyl]cyanocobalamin with a polyethylene glycol derivative of G-CSF (conjugate, UniProt P09919 31-207, looked up)
Granulocyte …: B3 Granulocyte …
modifications: PEG; cyanocobalamin conjugate
notes: conjugate of 5'-O-[glutaroyl]cyanocobalamin with a polyethylene glycol derivative of G-CSF
Biological Activity of Conjugate, % of G-CSF (mouse bone marrow cells): 4.4 % of G-CSF
Biological Activity of Conjugate, % of PEG-G-CSF (mouse bone marrow cells): 38 % of PEG-G-CSF
